Values of other authors as cited in paper PMC2866048.

Target: F-actin (Oryctolagus cuniculus) (UniProt P68135)

Substance: drebrin (from UniProt Q16643)
- Kd: 120 nM
